Test results as given in patent US20200010571A1 (Janssen / Centocor, published 2020).
Blank lines part the entries; values can stand above or below the binder they belong to.

Legend:
[1] = biological target: T1, human IL-17A (recombinant) (human, UniProt Q16552 24-155); test: cell-based or functional assay
[2] = biological target: T1, human IL-17A (recombinant); test: cell-based or functional assay; remark: listed apart in the source
[3] = biological target: T2, recombinant human IL-17A/F heterodimer (human, UniProt Q16552 24-155; Q96PD4 31-163); test: cell-based or functional assay
[4] = biological target: T2, recombinant human IL-17A/F heterodimer; test: cell-based or functional assay; remark: listed apart in the source
cynomolgus IL-17A [5] = biological target: T3, cynomolgus IL-17A (cynomolgus, UniProt Q16552 24-155 (human entry), limits assumed); test: cell-based or functional assay
T3 chain: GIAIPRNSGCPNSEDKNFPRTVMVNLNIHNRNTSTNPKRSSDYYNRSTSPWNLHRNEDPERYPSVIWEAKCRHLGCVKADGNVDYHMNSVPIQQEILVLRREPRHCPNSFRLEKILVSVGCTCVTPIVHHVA

cynomolgus IL-17A [6] = biological target: T3, cynomolgus IL-17A; test: cell-based or functional assay
[7] = biological target: T1, human IL-17A (recombinant); test: cell-based or functional assay; remark: listed apart in the source
[8] = biological target: T1, human IL-17A (recombinant); test: cell-based or functional assay; remark: listed apart in the source
[9] = biological target: T1, human IL-17A (recombinant); test: competition ELISA: biotinylated rhIL-17A binding to plate-coated rhIL-17RA-Fc; Experiment 1; 95% CI 0.03759-0.04316
[10] = biological target: T1, human IL-17A (recombinant); test: competition ELISA: biotinylated rhIL-17A binding to plate-coated rhIL-17RA-Fc; Experiment 2; 95% CI 0.04003-0.04542
[11] = biological target: T1, human IL-17A (recombinant); test: competition ELISA: biotinylated rhIL-17A binding to plate-coated rhIL-17RA-Fc; Experiment 3; 95% CI 0.07179-0.08047
[12] = biological target: T1, human IL-17A (recombinant); test: competition ELISA: biotinylated rhIL-17A binding to plate-coated rhIL-17RA-Fc; Experiment 1; 95% CI 0.03924-0.04274
[13] = biological target: T1, human IL-17A (recombinant); test: competition ELISA: biotinylated rhIL-17A binding to plate-coated rhIL-17RA-Fc; Experiment 2; 95% CI 0.02829-0.03326
[14] = biological target: T1, human IL-17A (recombinant); test: competition ELISA: biotinylated rhIL-17A binding to plate-coated rhIL-17RA-Fc; Experiment 3; 95% CI 0.06727-0.07636

IC50 (µg/mL); Inhibition of native IL-17A mediated GROα production by NHDF; Experiment 1 [1]: 0.0207 µg/mL | IC50 (µg/mL); Inhibition of native IL-17A mediated GROα production by NHDF; Experiment 2 [1]: 0.0327 µg/mL | IC50 (µg/mL); Inhibition of native IL-17A mediated GROα production by NHDF; Experiment 3 [1]: 0.0236 µg/mL | IC50 (µg/mL); Inhibition of native IL-17A mediated IL-6 production by NHDF; Experiment 1 [2]: 0.0254 µg/mL | IC50 (µg/mL); Inhibition of native IL-17A mediated IL-6 production by NHDF; Experiment 2 [2]: 0.0336 µg/mL | IC50 (µg/mL); Inhibition of native IL-17A mediated IL-6 production by NHDF; Experiment 3 [2]: 0.0242 µg/mL | IC50 (µg/mL); Inhibition of IL-17A/F mediated GROα production by NHDF; Experiment 1 [3]: 0.473 µg/mL | IC50 (µg/mL); Inhibition of IL-17A/F mediated GROα production by NHDF; Experiment 2 [3]: 0.117 µg/mL | IC50 (µg/mL); Inhibition of IL-17A/F mediated GROα production by NHDF; Experiment 3 [3]: 0.317 µg/mL | IC50 (µg/mL); Inhibition of IL-17A/F mediated IL-6 production by NHDF; Experiment 1 [4]: 0.714 µg/mL | IC50 (µg/mL); Inhibition of IL-17A/F mediated IL-6 production by NHDF; Experiment 2 [4]: 0.243 µg/mL | IC50 (µg/mL); Inhibition of IL-17A/F mediated IL-6 production by NHDF; Experiment 3 [4]: 0.99 µg/mL | IC50 (µg/mL); Inhibition of cyno IL-17A mediated GROα production by NHDF; Experiment 1 (cynomolgus IL-17A [5]): 0.0235 µg/mL | IC50 (µg/mL); Inhibition of cyno IL-17A mediated GROα production by NHDF; Experiment 2 (cynomolgus IL-17A [5]): 0.0466 µg/mL | IC50 (µg/mL); Inhibition of cyno IL-17A mediated GROα production by NHDF; Experiment 3 (cynomolgus IL-17A [5]): 0.0349 µg/mL | IC50 (µg/mL); Inhibition of cyno IL-17A mediated IL-6 production by NHDF; Experiment 2 (cynomolgus IL-17A [6]): 0.0437 µg/mL | IC50 (µg/mL); Inhibition of cyno IL-17A mediated IL-6 production by NHDF; Experiment 3 (cynomolgus IL-17A [6]): 0.0248 µg/mL | IC50 (nM); Inhibition of rhTNF-α and IL-17 induced IL-6 secretion from RA-FLSs; Donor 1 (ST1320) [7]: 0.34 nM | IC50 (nM); Inhibition of rhTNF-α and IL-17 induced IL-6 secretion from RA-FLSs; Donor 2 (ST1349) [7]: 0.22 nM | IC50 (nM); Inhibition of rhTNF-α and IL-17 induced IL-6 secretion from RA-FLSs; Donor 3 (ST1359) [7]: 0.25 nM | IC50 (nM); Inhibition of rhTNF-α and IL-17A induced GROα secretion from RA-FLSs from three donors; Donor 1 (ST1320) [8]: 0.25 nM | IC50 (nM); Inhibition of rhTNF-α and IL-17A induced GROα secretion from RA-FLSs from three donors; Donor 2 (ST1349) [8]: 0.12 nM | IC50 (nM); Inhibition of rhTNF-α and IL-17A induced GROα secretion from RA-FLSs from three donors; Donor 3 (ST1359) [8]: 0.14 nM | IC50 [9]: 0.0403 µg/mL | IC50 [10]: 0.0426 µg/mL | IC50 [11]: 0.076 µg/mL
B1: mAb 4782 (parental anti-IL-17A antibody, IgG1, F405L) (antibody)
heavy: not shown
light: QSVLTQPPSVSVAPGQTARISCSGDNLGDKYANWYQQKPGQAPVLVIYDDIDRPSGIPERFSGSNSGNTATLTISGTQAEDEADYYCGSYDFFLGMIVFGGGTKLTVLGQPKAAPSVTLFPPSSEELQANKATLVCLISDFYPGAVTVAWKADSSPVKAGVETTTPSKQSNNKYAASSYLSLTPEQWKSHRSYSCQVTHEGSTVEKTVAPTECS

IC50 (µg/mL); Inhibition of native IL-17A mediated GROα production by NHDF; Experiment 1 [1]: 0.0198 µg/mL | IC50 (µg/mL); Inhibition of native IL-17A mediated GROα production by NHDF; Experiment 2 [1]: 0.0265 µg/mL | IC50 (µg/mL); Inhibition of native IL-17A mediated GROα production by NHDF; Experiment 3 [1]: 0.0215 µg/mL | IC50 (µg/mL); Inhibition of native IL-17A mediated IL-6 production by NHDF; Experiment 1 [2]: 0.0214 µg/mL | IC50 (µg/mL); Inhibition of native IL-17A mediated IL-6 production by NHDF; Experiment 2 [2]: 0.0242 µg/mL | IC50 (µg/mL); Inhibition of native IL-17A mediated IL-6 production by NHDF; Experiment 3 [2]: 0.0232 µg/mL | IC50 (µg/mL); Inhibition of IL-17A/F mediated GROα production by NHDF; Experiment 1 [3]: 0.725 µg/mL | IC50 (µg/mL); Inhibition of IL-17A/F mediated GROα production by NHDF; Experiment 2 [3]: 0.393 µg/mL | IC50 (µg/mL); Inhibition of IL-17A/F mediated GROα production by NHDF; Experiment 3 [3]: 0.403 µg/mL | IC50 (µg/mL); Inhibition of IL-17A/F mediated IL-6 production by NHDF; Experiment 1 [4]: 0.344 µg/mL | IC50 (µg/mL); Inhibition of IL-17A/F mediated IL-6 production by NHDF; Experiment 2 [4]: 0.269 µg/mL | IC50 (µg/mL); Inhibition of IL-17A/F mediated IL-6 production by NHDF; Experiment 3 [4]: 0.545 µg/mL | IC50 (µg/mL); Inhibition of cyno IL-17A mediated GROα production by NHDF; Experiment 3 (cynomolgus IL-17A [5]): 0.0271 µg/mL | IC50 (µg/mL); Inhibition of cyno IL-17A mediated IL-6 production by NHDF; Experiment 3 (cynomolgus IL-17A [6]): 0.0326 µg/mL | IC50 [12]: 0.041 µg/mL | IC50 [13]: 0.0307 µg/mL | IC50 [14]: 0.0717 µg/mL
B2: mAb 7206 (parental anti-IL-17A antibody, IgG1, YTE) (antibody)
heavy: QVQLLESGGGLVQPGGSLRLSCAASGFTFSSYAMSWVRQAPGKGLEWVSTISLTSGFTYYADSVKGRFTISRDNSKNTLYLQMNSLRAEDTAVYYCARQLTLDVWGQGTLVTVSSASTKGPSVFPLAPSSKSTSGGTAALGCLVKDYFPEPVTVSWNSGALTSGVHTFPAVLQSSGLYSLSSVVTVPSSSLGTQTYICNVNHKPSNTKVDKKVEPKSCDKTHTCPPCPAPELLGGPSVFLFPPKPKDTLYITREPEVTCVVVDVSHEDPEVKFNWYVDGVEVHNAKTKPREEQYNSTYRVVSVLTVLHQDWLNGKEYKCKVSNKALPAPIEKTISKAKGQPREPQVYTLPPSREEMTKNQVSLTCLVKGFYPSDIAVEWESNGQPENNYKTTPPVLDSDGSFLLYSKLTVDKSRWQQGNVFSCSVMHEALHNHYTQKSLSLSPGK
light: B1 light
